Biological target: T1, HLA-A*02:01/PRAME antigen (recombinant, … on HLA-A*02:01) (human, Complex biotinylated for SPR capture; site of biotin and any tag not stated, not in the letters.)
T1 construct: also called PRAME target; pMHC
Assay: SPR (Biacore 8K), biotinylated pMHC captured, Fab-scFv analyte, single-cycle kinetics, 1:1 fit
Description: Recombinantly produced hits in Fab-scFv format, as described in Example 4, were evaluated for their ability to bind HLA-A*02:01/PRAME antigen. Binding characterization was performed by surface plasmon resonance (SPR) using a Biacore™ 8k (Cytiva) device. Briefly, 3000 RU of Biotin CAPture reagent (Cytiva) was immobilized on a Series S Sensor Chip CAP (Cytiva) and the biotinylated ligand HLA-A*02:01/PRAME (SEQ ID NO: 68) was diluted in HPS-EP+ running buffer (TEKNOVA) and captured for 300 s at a flow rate of 2 μL/min at flow cell 2 resulting in a ligand capture level of >100 RU. Subsequently, at least three consecutive analyte injections were performed at suitable concentrations applying the single-cycle-kinetics mode at a flow rate of 30 μL/min with an association time of 90 s and the dissociation time set to >400 s. The chip surface was regenerated according to the manufacturer's instructions. After reference flow cell signal and blank injections subtraction, the data was fit to a 1:1 Langmuir binding model to determine the association rate constant kₐ and dissociation rate constant kd and calculate the equilibrium dissociation constant KD (kd/kₐ), also denoted as affinity, using the Biacore™ Insight Evaluation software.

Binder	Kd [pM]
M2638 (bispecific antibody, Monovalent Fab-scFv: anti-CD3 Fab with the rabbit anti-pMHC scFv on the C-terminus of the Fab heavy chain; also called rabbit hit M2638; HLA-A*02:01/PRAMExCD3 Fab-scFv) heavy: EVQLVESGGGLVQPGGSLRLSCAASGFTFSTYAMNWVRQAPGKGLEWVGRIRSKYNNYATYYADSVKGRFTISRDDSKNTLYLQMNSLRAEDTAVYYCVRHGNFGDSYVSWFAYWGQGTLVTVSSASTKGPSVFPLAPSSKSTSGGTAALGCLVKDYFPEPVTVSWNSGALTSGVHTFPAVLQSSGLYSLSSVVTVPSSSLGTQTYICNVNHKPSNTKVDKKVEPKSCGGGGSQEQLVESGGGLVQPGGSLKLSCKASGFDFSTYGVSWVRQAPGKGLEWIGYIDPVYGSTYYASWVNGRFTISSHNAQNTLYLQLNSLTAADTATYFCVRDLYAGSSGYYMIYSLWGPGTLVTVSSGGGGSGGGGSGGGGSGGGGSELVMTQTPSSVSAAVGGTVTIKCQSSQSVYNNLLGWYQQKPGQPPKLLIYSASTLASGVPSRFSGSGSGTEFTLTISGVQADDAASYYCQGTYYNGDWYYPFGGGTEVVVK light: QAVVTQEPSLTVSPGGTVTLTCGSSTGAVTTSNYANWVQQKPGKSPRGLIGGTNKRAPGVPARFSGSLLGGKAALTISGAQPEDEADYYCALWYSNHWVFGGGTKLTVLGQPKAAPSVTLFPPSSEELQANKATLVCLISDFYPGAVTVAWKADSSPVKAGVETTTPSKQSNNKYAASSYLSLTPEQWKSHRSYSCQVTHEGSTVEKTVAPTECS	230
M3202 (bispecific antibody, Humanized variant of M2638, monovalent Fab-scFv) heavy: EVQLVESGGGLVQPGGSLRLSCAASGFTFSTYAMNWVRQAPGKGLEWVGRIRSKYNNYATYYADSVKGRFTISRDDSKNTLYLQMNSLRAEDTAVYYCVRHGNFGDSYVSWFAYWGQGTLVTVSSASTKGPSVFPLAPSSKSTSGGTAALGCLVKDYFPEPVTVSWNSGALTSGVHTFPAVLQSSGLYSLSSVVTVPSSSLGTQTYICNVNHKPSNTKVDKKVEPKSCGGGGSDIQMTQSPSSLSASVGDRVTITCRSSQSVYNNLLGWYQQKPGKAPKLLIYSASTLASGVPSRFSGSGSGTDFTLTISSLQPEDSATYYCQGTYYTGDWYYPFGCGTKVEIKGGGGSGGGGSGGGGSGGGGSQVQLVESGGGSVQPGRSLRLSCAASGFDFSTYGVSWVRQAPGKCLEWIGYIDPVYGSTHYADSVKGRFTISRDNSKNTLYLQMNSLRAEDTASYYCVRDLYAGSSGYYMIYSLWGQGTSVTVSS light: QAVVTQEPSLTVSPGGTVTLTCGSSTGAVTTSNYANWVQQKPGKSPRGLIGGTNKRAPGVPARFSGSLLGGKAALTISGAQPEDEADYYCALWYSNHWVFGGGTKLTVLGQPKAAPSVTLFPPSSEELQANKATLVCLISDFYPGAVTVAWKADSSPVKAGVETTTPSKQSNNKYAASSYLSLTPEQWKSHRSYSCQVTHEGSTVEKTVAPTECS	40
M2913 (bispecific antibody, Humanized variant of M2638, monovalent Fab-scFv) heavy: EVQLVESGGGLVQPGGSLRLSCAASGFTFSTYAMNWVRQAPGKGLEWVGRIRSKYNNYATYYADSVKGRFTISRDDSKNTLYLQMNSLRAEDTAVYYCVRHGNFGDSYVSWFAYWGQGTLVTVSSASTKGPSVFPLAPSSKSTSGGTAALGCLVKDYFPEPVTVSWNSGALTSGVHTFPAVLQSSGLYSLSSVVTVPSSSLGTQTYICNVNHKPSNTKVDKKVEPKSCGGGGSDIQMTQSPSSLSASVGDRVTITCQSSQSVYNNLLGWYQQKPGKAPKLLIYSASTLASGVPSRFSGSGSGTDFTLTISSLQPEDFATYYCQGTYYNGDWYYPFGCGTKVEIKGGGGSGGGGSGGGGSGGGGSEVQLVESGGGSVQPGGSLRLSCAASGFDFSTYGVSWVRQAPGKCLEWIGYIDPVYGSTYYASWVNGRFTISRDNSKNTLYLQMNSLRAEDTASYYCVRDLYAGSSGYYMIYSLWGQGTSVTVSS light: QAVVTQEPSLTVSPGGTVTLTCGSSTGAVTTSNYANWVQQKPGKSPRGLIGGTNKRAPGVPARFSGSLLGGKAALTISGAQPEDEADYYCALWYSNHWVFGGGTKLTVLGQPKAAPSVTLFPPSSEELQANKATLVCLISDFYPGAVTVAWKADSSPVKAGVETTTPSKQSNNKYAASSYLSLTPEQWKSHRSYSCQVTHEGSTVEKTVAPTECS	660
M3182 (bispecific antibody, Humanized variant of M2638, monovalent Fab-scFv) heavy: EVQLVESGGGLVQPGGSLRLSCAASGFTFSTYAMNWVRQAPGKGLEWVGRIRSKYNNYATYYADSVKGRFTISRDDSKNTLYLQMNSLRAEDTAVYYCVRHGNFGDSYVSWFAYWGQGTLVTVSSASTKGPSVFPLAPSSKSTSGGTAALGCLVKDYFPEPVTVSWNSGALTSGVHTFPAVLQSSGLYSLSSVVTVPSSSLGTQTYICNVNHKPSNTKVDKKVEPKSCGGGGSDIQMTQSPSSLSASVGDRVTITCRSSQSVYNNLLGWYQQKPGKAPKLLIYSASTLASGVPSRFSGSGSGTDFTLTISSLQPEDFATYYCQGTYYTGDWYYPFGCGTKVEIKGGGGSGGGGSGGGGSGGGGSQVQLVESGGGSVQPGRSLRLSCAASGFDFSTYGVSWVRQAPGKCLEWIGYIDPVYGSTHYADSVKGRFTISRDNSKNTLYLQMNSLRAEDTASYYCVRDLYAGSSGYYMIYSLWGQGTSVTVSS light: QAVVTQEPSLTVSPGGTVTLTCGSSTGAVTTSNYANWVQQKPGKSPRGLIGGTNKRAPGVPARFSGSLLGGKAALTISGAQPEDEADYYCALWYSNHWVFGGGTKLTVLGQPKAAPSVTLFPPSSEELQANKATLVCLISDFYPGAVTVAWKADSSPVKAGVETTTPSKQSNNKYAASSYLSLTPEQWKSHRSYSCQVTHEGSTVEKTVAPTECS	40
M3283 (bispecific antibody, Humanized variant of M2638, monovalent Fab-scFv) heavy: EVQLVESGGGLVQPGGSLRLSCAASGFTFSTYAMNWVRQAPGKGLEWVGRIRSKYNNYATYYADSVKGRFTISRDDSKNTLYLQMNSLRAEDTAVYYCVRHGNFGDSYVSWFAYWGQGTLVTVSSASTKGPSVFPLAPSSKSTSGGTAALGCLVKDYFPEPVTVSWNSGALTSGVHTFPAVLQSSGLYSLSSVVTVPSSSLGTQTYICNVNHKPSNTKVDKKVEPKSCGGGGSDIQMTQSPSSLSASVGDRVTITCRSSQSVYNNLLGWYQQKPGKAPKLLIYSASTLASGVPSRFSGSGSGTDFTLTISSLQPEDSATYYCQGTYYTGDWYYPFGCGTKVEIKGGGGSGGGGSGGGGSGGGGSQVQLVESGGGSVQPGRSLRLSCAASGFTFSTYGVSWVRQAPGKCLEWIGYIDPVYGSTHYADSVKGRFTISRDNSKNTLYLQMNSLRAEDTASYYCVRDLYAGSSGYYMIYSLWGQGTSVTVSS light: QAVVTQEPSLTVSPGGTVTLTCGSSTGAVTTSNYANWVQQKPGKSPRGLIGGTNKRAPGVPARFSGSLLGGKAALTISGAQPEDEADYYCALWYSNHWVFGGGTKLTVLGQPKAAPSVTLFPPSSEELQANKATLVCLISDFYPGAVTVAWKADSSPVKAGVETTTPSKQSNNKYAASSYLSLTPEQWKSHRSYSCQVTHEGSTVEKTVAPTECS	90
M3284 (bispecific antibody, Humanized variant of M2638, monovalent Fab-scFv) heavy: EVQLVESGGGLVQPGGSLRLSCAASGFTFSTYAMNWVRQAPGKGLEWVGRIRSKYNNYATYYADSVKGRFTISRDDSKNTLYLQMNSLRAEDTAVYYCVRHGNFGDSYVSWFAYWGQGTLVTVSSASTKGPSVFPLAPSSKSTSGGTAALGCLVKDYFPEPVTVSWNSGALTSGVHTFPAVLQSSGLYSLSSVVTVPSSSLGTQTYICNVNHKPSNTKVDKKVEPKSCGGGGSDIQMTQSPSSLSASVGDRVTITCRSSQSVYNNLLGWYQQKPGKAPKLLIYSASTLASGVPSRFSGSGSGTDFTLTISSLQPEDSATYYCQGTYYTGDWYYPFGCGTKVEIKGGGGSGGGGSGGGGSGGGGSQVQLVESGGGSVQPGRSLRLSCAASGFTVSTYGVSWVRQAPGKCLEWIGYIDPVYGSTHYADSVKGRFTISRDNSKNTLYLQMNSLRAEDTASYYCVRDLYAGSSGYYMIYSLWGQGTSVTVSS light: QAVVTQEPSLTVSPGGTVTLTCGSSTGAVTTSNYANWVQQKPGKSPRGLIGGTNKRAPGVPARFSGSLLGGKAALTISGAQPEDEADYYCALWYSNHWVFGGGTKLTVLGQPKAAPSVTLFPPSSEELQANKATLVCLISDFYPGAVTVAWKADSSPVKAGVETTTPSKQSNNKYAASSYLSLTPEQWKSHRSYSCQVTHEGSTVEKTVAPTECS	270
M3285 (bispecific antibody, Humanized variant of M2638, monovalent Fab-scFv) heavy: EVQLVESGGGLVQPGGSLRLSCAASGFTFSTYAMNWVRQAPGKGLEWVGRIRSKYNNYATYYADSVKGRFTISRDDSKNTLYLQMNSLRAEDTAVYYCVRHGNFGDSYVSWFAYWGQGTLVTVSSASTKGPSVFPLAPSSKSTSGGTAALGCLVKDYFPEPVTVSWNSGALTSGVHTFPAVLQSSGLYSLSSVVTVPSSSLGTQTYICNVNHKPSNTKVDKKVEPKSCGGGGSDIQMTQSPSSLSASVGDRVTITCRSSQSVYNNLLGWYQQKPGKAPKLLIYSASTLASGVPSRFSGSGSGTDFTLTISSLQPEDSATYYCQGTYYTGDWYYPFGCGTKVEIKGGGGSGGGGSGGGGSGGGGSQVQLVESGGGSVQPGRSLRLSCAASGFDFSTYGVSWVRQAPGKCLEWIGYIDPVYGSTHYADSVKGRFTISRDNSKNTLYLQMNSLRAEDTASYYCARDLYAGSSGYYMIYSLWGQGTSVTVSS light: QAVVTQEPSLTVSPGGTVTLTCGSSTGAVTTSNYANWVQQKPGKSPRGLIGGTNKRAPGVPARFSGSLLGGKAALTISGAQPEDEADYYCALWYSNHWVFGGGTKLTVLGQPKAAPSVTLFPPSSEELQANKATLVCLISDFYPGAVTVAWKADSSPVKAGVETTTPSKQSNNKYAASSYLSLTPEQWKSHRSYSCQVTHEGSTVEKTVAPTECS	1300
